Source: the supplement of paper PMC10126150
± gives the standard deviation of the averaged measurements.

System: ATP
Experiment: switch fluorescence ratio, 500 uM ATP over buffer (Cy3 cluster intensity, sum of 5 cycles each) (fold (ratio)); higher = stronger signal-on switching upon ATP binding; sequences stand for … in TCGTCGGCAGCGTCAGATGTGTATAAGAGACAGTTTTTTTTTTTTTTTTTTTTTTTTT…TC
Settings: aptamer strand: ATP DNA aptamer (quencher-CACCTGGGGGAGTATTGCGGAGGAAGG + anchor), 100 nM annealed; ATP concentration: 500 uM
How it was run: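 Values give the fluorescence ratio for each switch-domain sequence, averaged from per-cluster ratios of summed target-cycle to summed buffer-cycle Cy3 intensity. The Cy3-labelled switching-strand clusters sat on a modified Illumina MiSeq flow-cell, were annealed to 100 nM quencher-labelled ATP aptamer, and were imaged in selection buffer, then after 15 min with 500 uM ATP at 22 °C. Five cycles ran with NaOH stripping and re-annealing between them, and clusters outside 100-1000 RFU were excluded.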
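Note: ATP exposure 15 min at 22 °C before imaging.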

Row | Sequence | switch fluorescence ratio
1 | ACCCTGGCAA | 1.36 ± 0.41
2 | ACCCTGGTAT | 1.02 ± 0.017
3 | ACCCTTTTTG | 0.986 ± 0.025
4 | ACCGAATAAT | 1.03 ± 0.019
5 | ACCGACGGGA | 2.72 ± 2
6 | ACCGACTTGC | 1.09 ± 0.018
7 | ACCGATGCAC | 4.12 ± 1.2
8 | ACCGCCGTCA | 1.08 ± 0.012
9 | ACCGCGTTTT | 1.03 ± 0.041
10 | ACCGCTTGTA | 1.05 ± 0.052
11 | ACCGGAGCGG | 1.61 ± 0.042
12 | ACCGGATATA | 1.006 ± 0.0081
13 | ACCGGATCGT | 0.9828 ± 0.0035
14 | ACCGGCGAGC | 1.01 ± 0.016
15 | ACCGGCGTAG | 1 ± 0.016
16 | ACCGGCTGCG | 1.08 ± 0.08
17 | ACCGGGCCGA | 1.04 ± 0.016
18 | ACCGGGCTTT | 0.988 ± 0.024
19 | ACCGGGGATT | 1 ± 0.018
20 | ACCGGGGCTA | 1.03 ± 0.031
21 | ACCGGGGTGG | 0.991 ± 0.05
22 | ACCGGGGTTT | 1 ± 0.051
23 | ACCGGTGCTG | 0.98 ± 0.042
24 | ACCGGTTAGC | 1.02 ± 0.015
25 | ACCGTAAACG | 0.999 ± 0.12
26 | ACCGTGTATG | 1.01 ± 0.027

Row | Sequence | switch fluorescence ratio
27 | ACCGTGTTAT | 0.9583 ± 0.0037
28 | ACCTAAAGGA | 1.02 ± 0.016
29 | ACCTAATTAG | 1.06 ± 0.073
30 | ACCTCGAAGA | 1.03 ± 0.014
31 | ACCTGCTTTT | 1.05 ± 0.051
32 | ACCTGGCCTG | 0.999 ± 0.021
33 | ACCTGGCGTA | 1.04 ± 0.0016
34 | ACCTGGTCGT | 1.05 ± 0.048
35 | ACCTGTAATA | 1.05 ± 0.0062
36 | ACCTGTATA | 1.054 ± 0.0037
37 | ACCTTAGTAT | 1.02 ± 0.022
38 | ACCTTATCCT | 1.16 ± 0.012
39 | ACCTTTTTCG | 1.07 ± 0.0096
40 | ACGAAAATGG | 1.05 ± 0.062
41 | ACGAAAGGGA | 1.11 ± 0.029
42 | ACGAAATCGG | 1.03 ± 0.018
43 | ACGAAATGAC | 1.68 ± 0.037
44 | ACGAAGGGGT | 1.03 ± 0.021
45 | ACGACAGCAG | 1.39 ± 0.033
46 | ACGACCGACA | 1.95 ± 0.29
47 | ACGACCGGGT | 1.2 ± 0.037
48 | ACGACTGAAG | 1.014 ± 0.0015
49 | ACGACTTCTT | 0.989 ± 0.019
50 | ACGAGAGGGG | 0.996 ± 0.048
51 | ACGAGTTACT | 1.1 ± 0.013
52 | ACGATAACTT | 1.21 ± 0.034

Row | Sequence | switch fluorescence ratio
53 | ACGATACTTT | 1.37 ± 0.015
54 | ACGATCTCCA | 1.035 ± 0.005
55 | ACGATGGGGA | 1.04 ± 0.034
56 | ACGATGGTTT | 0.984 ± 0.04
57 | ACGATGTAAA | 0.9574 ± 0.0042
58 | ACGATTCAAG | 1.02 ± 0.061
59 | ACGATTGGTT | 1.005 ± 0.01
60 | ACGCACTAAG | 1.61 ± 0.026
61 | ACGCAGGCTT | 1.05 ± 0.011
62 | ACGCAGGTAT | 1.04 ± 0.061
63 | ACGCAGTATG | 1.03 ± 0.031
64 | ACGCCGGGCT | 1.07 ± 0.054
65 | ACGCGACGGA | 1.07 ± 0.079
66 | ACGCGCTTTA | 0.99871 ± 0.00033
67 | ACGCGGAGTA | 0.997 ± 0.038
68 | ACGCGGCGTG | 0.982 ± 0.03
69 | ACGCGGCTAT | 1.06 ± 0.033
70 | ACGCGGGGGA | 1.03 ± 0.014
71 | ACGCGGGTAA | 1.023 ± 0.0095
72 | ACGCGGTCCA | 0.988 ± 0.019
73 | ACGCTTCTTG | 1 ± 0.028
74 | ACGCTTGAAT | 1.01 ± 0.023
75 | ACGGAAAAAG | 1.01 ± 0.026
76 | ACGGAATTGT | 1.07 ± 0.029
77 | ACGGACATCT | 1.28 ± 0.022
78 | ACGGACCATG | 1.11 ± 0.042

Row | Sequence | switch fluorescence ratio
79 | ACGGACCCGG | 1.36 ± 0.42
80 | ACGGACGTTC | 1.15 ± 0.015
81 | ACGGCATTAT | 1.164 ± 0.0042
82 | ACGGCCTGTT | 1.02 ± 0.017
83 | ACGGCCTTAT | 0.991 ± 0.033
84 | ACGGCGAGAG | 1.06 ± 0.03
85 | ACGGCGAGGT | 1.03 ± 0.032
86 | ACGGCGAGTC | 1.01 ± 0.024
87 | ACGGCTGCGG | 0.987 ± 0.035
88 | ACGGCTGTGC | 1.02 ± 0.013
89 | ACGGGACGCA | 1.089 ± 0.0019
90 | ACGGGACGGA | 1.034 ± 0.0065
91 | ACGGGACGTA | 1.04 ± 0.014
92 | ACGGGCATTT | 0.994 ± 0.04
93 | ACGGGCGGCG | 0.979 ± 0.047
94 | ACGGGCTTCT | 1.005 ± 0.0047
95 | ACGGGGGACT | 1.02 ± 0.049
96 | ACGGGGGATT | 1.03 ± 0.034
97 | ACGGGGGGCA | 1.01 ± 0.048
98 | ACGGGGGGGC | 1.09 ± 0.06
99 | ACGGGGGGGG | 1.02 ± 0.048
100 | ACGGGGGGGT | 1.09 ± 0.081
101 | ACGGGGTTGT | 1 ± 0.024
102 | ACGGGTAAAT | 1.01 ± 0.036
103 | ACGGGTGCGT | 1.017 ± 0.0027
104 | ACGGTAACTC | 1.27 ± 0.03

Row | Sequence | switch fluorescence ratio
105 | ACGGTACGGA | 1.21 ± 0.05
106 | ACGGTCCAGG | 3 ± 0.5
107 | ACGGTCCGGG | 1.06 ± 0.036
108 | ACGGTGAACC | 0.989 ± 0.06
109 | ACGGTGAATG | 1 ± 0.038
110 | ACGGTGACTA | 1.1 ± 0.023
111 | ACGGTGATGG | 1.018 ± 0.0071
112 | ACGGTGGTCG | 0.913 ± 0.033
113 | ACGGTGTGGC | 1.03 ± 0.072
114 | ACGGTTAGTC | 1.04 ± 0.016
115 | ACGGTTCTTT | 1.01 ± 0.03
116 | ACGGTTGAAT | 0.9882 ± 0.0084
117 | ACGGTTTCGT | 1.01 ± 0.014
118 | ACGGTTTCTG | 1.04 ± 0.029
119 | ACGGTTTCTT | 0.9771 ± 0.0039
120 | ACGGTTTGCG | 0.979 ± 0.011
121 | ACGGTTTTGC | 0.997 ± 0.013
122 | ACGTAACCTA | 1.28 ± 0.014
123 | ACGTAATTGG | 1.21 ± 0.01
124 | ACGTAGGGGG | 0.988 ± 0.032
125 | ACGTAGTGGC | 1.04 ± 0.02
126 | ACGTAGTGTC | 1.03 ± 0.018
127 | ACGTATCTTG | 1.08 ± 0.038
128 | ACGTATTAAT | 1.12 ± 0.031
129 | ACGTATTTTC | 1.171 ± 0.0024
130 | ACGTCCGTTT | 1.04 ± 0.019

Row | Sequence | switch fluorescence ratio
131 | ACGTCGCGGG | 0.9877 ± 0.0019
132 | ACGTCTGGCT | 0.996 ± 0.028
133 | ACGTCTTCAC | 1.069 ± 0.002
134 | ACGTGACCCA | 1.35 ± 0.071
135 | ACGTGGGGAG | 1.08 ± 0.022
136 | ACGTGGGGTA | 1.04 ± 0.022
137 | ACGTGGGGTC | 1.02 ± 0.022
138 | ACGTGGGTCT | 1.01 ± 0.028
139 | ACGTGGTAGC | 1 ± 0.03
140 | ACGTGTATTT | 1.08 ± 0.09
141 | ACGTGTGTTT | 1.01 ± 0.017
142 | ACGTGTTTTG | 1.02 ± 0.018
143 | ACGTTAGGGG | 1.14 ± 0.14
144 | ACGTTATAAG | 1.1 ± 0.011
145 | ACGTTCCGAG | 2.54 ± 0.32
146 | ACGTTCCGCT | 1.099 ± 0.003
147 | ACGTTCTATA | 1.026 ± 0.0088
148 | ACGTTGATTC | 1.03 ± 0.047
149 | ACGTTGGGGG | 1.01 ± 0.028
150 | ACGTTGGTGG | 1 ± 0.012
151 | ACGTTGTTTT | 0.984 ± 0.011
152 | ACGTTTAGAA | 1.01 ± 0.029
153 | ACGTTTTAAG | 1.01 ± 0.032
